Experimental findings from patent US20240400703A1 (Genmab, published 2024) are described below.

This experiment addresses T1, mouse OX40 expressed on ExpiCHO-S cells (mouse, UniProt P47741 20-272).
T1 construct: full-length entry; also called OX40mm; wild-type mouse OX40
T1 sequence: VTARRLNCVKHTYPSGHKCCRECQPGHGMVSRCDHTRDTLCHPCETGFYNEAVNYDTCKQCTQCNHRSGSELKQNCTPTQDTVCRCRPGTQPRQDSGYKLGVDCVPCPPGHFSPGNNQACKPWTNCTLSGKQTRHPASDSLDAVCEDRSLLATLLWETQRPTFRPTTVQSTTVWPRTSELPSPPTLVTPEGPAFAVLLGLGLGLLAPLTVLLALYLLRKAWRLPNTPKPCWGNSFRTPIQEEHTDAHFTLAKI
Nature of the experiment: not described (data not shown).

B1: IgG1-CD134-003-FEAL (antibody)
heavy: EQLKETGGGLVQPGGSLTLSCKASGFDFSSGYMSWVRQAPGKGLEWIGYIDPVFGSTYYASWVNGRFAISSHNAQNTLYLQLNSLTAADTATYFCARDLRAFYSGWGGINLWGPGTLVTVSSASTKGPSVFPLAPSSKSTSGGTAALGCLVKDYFPEPVTVSWNSGALTSGVHTFPAVLQSSGLYSLSSVVTVPSSSLGTQTYICNVNHKPSNTKVDKRVEPKSCDKTHTCPPCPAPEFEGGPSVFLFPPKPKDTLMISRTPEVTCVVVAVSHEDPEVKFNWYVDGVEVHNAKTKPREEQYNSTYRVVSVLTVLHQDWLNGKEYKCKVSNKALPAPIEKTISKAKGQPREPQVYTLPPSREEMTKNQVSLTCLVKGFYPSDIAVEWESNGQPENNYKTTPPVLDSDGSFLLYSKLTVDKSRWQQGNVFSCSVMHEALHNHYTQKSLSLSPG
light: AAVLTQTPSPVSAAVGGTVTIKCQSSQIVVNNNFLSWYQQKPGQPPKLLIYDASNLASGVPDRFSGSGSGTQFTLTISGVQSDDAATYYCLGGYDDDAENAFGGGTEVVVQRTVAAPSVFIFPPSDEQLKSGTASVVCLLNNFYPREAKVQWKVDNALQSGNSQESVTEQDSKDSTYSLSSTLTLSKADYEKHKVYACEVTHQGLSSPVTKSFNRGEC
notes: also called IgG1-CD134-003-L234F-L235E-D265A-F405L
In the case of B1, the binding result was “no binding”.
